According to IntAct's records for PubMed 16803958:

B1: Protein CBFA2T1 (Homo sapiens), Q06455-4 (parent)
chain: MPDSPVDVKTQSRLTPPTMPPPPTTQGAPRTSSFTPTTLTNGTSHSPTALNGAPSPPNGFSNGPSSSSSSSLANQQLPPACGARQLSKLKRFLTTLQQFGNDISPEIGERVRTLVLGLVNSTLTIEEFHSKLQEATNFPLRPFVIPFLKANLPLLQRELLHCARLAKQNPAQYLAQHEQLLLDASTTSPVDSSELLLDVNENGKRRTPDRTKENGFDREPLHSEHPSKRPCTISPGQRYSPNNGLSYQPNGLPHPTPPPPQHYRLDDMAIAHHYRDSYRHPSHRDLRDRNRPMGLHGTRQEEMIDHRLTDREWAEEWKHLDHLLNCIMDMVEKTRRSLTVLRRCQEADREELNYWIRRYSDAEDLKKGGGSSSSHSRQQSPVNPDPVALDAHREFLHRPASGYVPEEIWKKAEEAVNEVKRQAMTELQKAVSEAERKAHDMITTERAKMERTVAEAKRQAAEDALAVINQQEDSSESCWNCGRKASETCSGCNTARYCGSFCQHKDWEKHHHICGQTLQAQQQGDTPAVSSSVTPNSGAGSPMDTPPAATPRSTTPGTPSTIETTPR

Variants of: B1
Details: with TCF12, Q99081-3
Sequence of TCF12, Q99081-3 (Q99081 other isoform, or with tags, fused parts or gaps): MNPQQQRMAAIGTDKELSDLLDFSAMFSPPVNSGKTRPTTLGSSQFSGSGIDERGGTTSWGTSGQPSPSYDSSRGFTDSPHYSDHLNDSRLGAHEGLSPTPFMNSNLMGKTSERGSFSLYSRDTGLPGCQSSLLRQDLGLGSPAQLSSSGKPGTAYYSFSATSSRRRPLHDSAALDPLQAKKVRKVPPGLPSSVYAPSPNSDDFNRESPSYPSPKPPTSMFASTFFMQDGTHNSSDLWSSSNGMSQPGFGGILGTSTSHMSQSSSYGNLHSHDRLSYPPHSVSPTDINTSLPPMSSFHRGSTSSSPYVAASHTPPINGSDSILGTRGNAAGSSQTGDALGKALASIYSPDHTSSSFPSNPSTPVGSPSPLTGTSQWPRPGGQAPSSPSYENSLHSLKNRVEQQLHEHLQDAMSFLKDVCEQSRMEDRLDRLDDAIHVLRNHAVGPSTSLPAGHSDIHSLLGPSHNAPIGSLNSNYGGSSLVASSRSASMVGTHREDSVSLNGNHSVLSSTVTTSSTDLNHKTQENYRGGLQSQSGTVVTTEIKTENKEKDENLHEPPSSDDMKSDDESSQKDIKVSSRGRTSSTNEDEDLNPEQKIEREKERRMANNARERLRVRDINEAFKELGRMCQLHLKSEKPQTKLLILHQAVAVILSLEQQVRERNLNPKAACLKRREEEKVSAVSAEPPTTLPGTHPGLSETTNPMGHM

| Variant | effect of a mutation on the interaction |
| --- | --- |
| MPDSPVDVKTQSRLTPPTMPPPPTTQGAPRTSSFTPTTLTNGTSHSPTALNGAPSPPNGFSNGPSSSSSSSLANQQLPPACGARQLSALKRFLTTLQQFGNDISPEIGERVRTLVLGLVNSTLTIEEFHSKLQEATNFPLRPFVIPFLKANLPLLQRELLHCARLAKQNPAQYLAQHEQLLLDASTTSPVDSSELLLDVNENGKRRTPDRTKENGFDREPLHSEHPSKRPCTISPGQRYSPNNGLSYQPNGLPHPTPPPPQHYRLDDMAIAHHYRDSYRHPSHRDLRDRNRPMGLHGTRQEEMIDHRLTDREWAEEWKHLDHLLNCIMDMVEKTRRSLTVLRRCQEADREELNYWIRRYSDAEDLKKGGGSSSSHSRQQSPVNPDPVALDAHREFLHRPASGYVPEEIWKKAEEAVNEVKRQAMTELQKAVSEAERKAHDMITTERAKMERTVAEAKRQAAEDALAVINQQEDSSESCWNCGRKASETCSGCNTARYCGSFCQHKDWEKHHHICGQTLQAQQQGDTPAVSSSVTPNSGAGSPMDTPPAATPRSTTPGTPSTIETTPR [K88A] | disrupting interaction strength |
| MPDSPVDVKTQSRLTPPTMPPPPTTQGAPRTSSFTPTTLTNGTSHSPTALNGAPSPPNGFSNGPSSSSSSSLANQQLPPACGARQLSDLKRFLTTLQQFGNDISPEIGERVRTLVLGLVNSTLTIEEFHSKLQEATNFPLRPFVIPFLKANLPLLQRELLHCARLAKQNPAQYLAQHEQLLLDASTTSPVDSSELLLDVNENGKRRTPDRTKENGFDREPLHSEHPSKRPCTISPGQRYSPNNGLSYQPNGLPHPTPPPPQHYRLDDMAIAHHYRDSYRHPSHRDLRDRNRPMGLHGTRQEEMIDHRLTDREWAEEWKHLDHLLNCIMDMVEKTRRSLTVLRRCQEADREELNYWIRRYSDAEDLKKGGGSSSSHSRQQSPVNPDPVALDAHREFLHRPASGYVPEEIWKKAEEAVNEVKRQAMTELQKAVSEAERKAHDMITTERAKMERTVAEAKRQAAEDALAVINQQEDSSESCWNCGRKASETCSGCNTARYCGSFCQHKDWEKHHHICGQTLQAQQQGDTPAVSSSVTPNSGAGSPMDTPPAATPRSTTPGTPSTIETTPR [K88D] | disrupting interaction strength |
| MPDSPVDVKTQSRLTPPTMPPPPTTQGAPRTSSFTPTTLTNGTSHSPTALNGAPSPPNGFSNGPSSSSSSSLANQQLPPACGARQLSKAKRFLTTLQQFGNDISPEIGERVRTLVLGLVNSTLTIEEFHSKLQEATNFPLRPFVIPFLKANLPLLQRELLHCARLAKQNPAQYLAQHEQLLLDASTTSPVDSSELLLDVNENGKRRTPDRTKENGFDREPLHSEHPSKRPCTISPGQRYSPNNGLSYQPNGLPHPTPPPPQHYRLDDMAIAHHYRDSYRHPSHRDLRDRNRPMGLHGTRQEEMIDHRLTDREWAEEWKHLDHLLNCIMDMVEKTRRSLTVLRRCQEADREELNYWIRRYSDAEDLKKGGGSSSSHSRQQSPVNPDPVALDAHREFLHRPASGYVPEEIWKKAEEAVNEVKRQAMTELQKAVSEAERKAHDMITTERAKMERTVAEAKRQAAEDALAVINQQEDSSESCWNCGRKASETCSGCNTARYCGSFCQHKDWEKHHHICGQTLQAQQQGDTPAVSSSVTPNSGAGSPMDTPPAATPRSTTPGTPSTIETTPR [L89A] | decreasing interaction strength |
| MPDSPVDVKTQSRLTPPTMPPPPTTQGAPRTSSFTPTTLTNGTSHSPTALNGAPSPPNGFSNGPSSSSSSSLANQQLPPACGARQLSKAKRFLTTLQQFGNDISPEIGERVRTLVLGLVNSTLTIEEFHSKLQEATNFPLDPFVIPFLKANLPLLQRELLHCARLAKQNPAQYLAQHEQLLLDASTTSPVDSSELLLDVNENGKRRTPDRTKENGFDREPLHSEHPSKRPCTISPGQRYSPNNGLSYQPNGLPHPTPPPPQHYRLDDMAIAHHYRDSYRHPSHRDLRDRNRPMGLHGTRQEEMIDHRLTDREWAEEWKHLDHLLNCIMDMVEKTRRSLTVLRRCQEADREELNYWIRRYSDAEDLKKGGGSSSSHSRQQSPVNPDPVALDAHREFLHRPASGYVPEEIWKKAEEAVNEVKRQAMTELQKAVSEAERKAHDMITTERAKMERTVAEAKRQAAEDALAVINQQEDSSESCWNCGRKASETCSGCNTARYCGSFCQHKDWEKHHHICGQTLQAQQQGDTPAVSSSVTPNSGAGSPMDTPPAATPRSTTPGTPSTIETTPR [L89A;R141D] | disrupting interaction strength |
| MPDSPVDVKTQSRLTPPTMPPPPTTQGAPRTSSFTPTTLTNGTSHSPTALNGAPSPPNGFSNGPSSSSSSSLANQQLPPACGARQLSKLKDFLTTLQQFGNDISPEIGERVRTLVLGLVNSTLTIEEFHSKLQEATNFPLRPFVIPFLKANLPLLQRELLHCARLAKQNPAQYLAQHEQLLLDASTTSPVDSSELLLDVNENGKRRTPDRTKENGFDREPLHSEHPSKRPCTISPGQRYSPNNGLSYQPNGLPHPTPPPPQHYRLDDMAIAHHYRDSYRHPSHRDLRDRNRPMGLHGTRQEEMIDHRLTDREWAEEWKHLDHLLNCIMDMVEKTRRSLTVLRRCQEADREELNYWIRRYSDAEDLKKGGGSSSSHSRQQSPVNPDPVALDAHREFLHRPASGYVPEEIWKKAEEAVNEVKRQAMTELQKAVSEAERKAHDMITTERAKMERTVAEAKRQAAEDALAVINQQEDSSESCWNCGRKASETCSGCNTARYCGSFCQHKDWEKHHHICGQTLQAQQQGDTPAVSSSVTPNSGAGSPMDTPPAATPRSTTPGTPSTIETTPR [R91D] | disrupting interaction strength |
| MPDSPVDVKTQSRLTPPTMPPPPTTQGAPRTSSFTPTTLTNGTSHSPTALNGAPSPPNGFSNGPSSSSSSSLANQQLPPACGARQLSKLKRALTTLQQFGNDISPEIGERVRTLVLGLVNSTLTIEEFHSKLQEATNFPLRPFVIPFLKANLPLLQRELLHCARLAKQNPAQYLAQHEQLLLDASTTSPVDSSELLLDVNENGKRRTPDRTKENGFDREPLHSEHPSKRPCTISPGQRYSPNNGLSYQPNGLPHPTPPPPQHYRLDDMAIAHHYRDSYRHPSHRDLRDRNRPMGLHGTRQEEMIDHRLTDREWAEEWKHLDHLLNCIMDMVEKTRRSLTVLRRCQEADREELNYWIRRYSDAEDLKKGGGSSSSHSRQQSPVNPDPVALDAHREFLHRPASGYVPEEIWKKAEEAVNEVKRQAMTELQKAVSEAERKAHDMITTERAKMERTVAEAKRQAAEDALAVINQQEDSSESCWNCGRKASETCSGCNTARYCGSFCQHKDWEKHHHICGQTLQAQQQGDTPAVSSSVTPNSGAGSPMDTPPAATPRSTTPGTPSTIETTPR [F92A] | disrupting interaction strength |
| MPDSPVDVKTQSRLTPPTMPPPPTTQGAPRTSSFTPTTLTNGTSHSPTALNGAPSPPNGFSNGPSSSSSSSLANQQLPPACGARQLSKLKRALTTLQQFGNDISPEIGERVRTLVLGLVNSTLTIEEFHSKLQEATNFPLRPFVIPALKANLPLLQRELLHCARLAKQNPAQYLAQHEQLLLDASTTSPVDSSELLLDVNENGKRRTPDRTKENGFDREPLHSEHPSKRPCTISPGQRYSPNNGLSYQPNGLPHPTPPPPQHYRLDDMAIAHHYRDSYRHPSHRDLRDRNRPMGLHGTRQEEMIDHRLTDREWAEEWKHLDHLLNCIMDMVEKTRRSLTVLRRCQEADREELNYWIRRYSDAEDLKKGGGSSSSHSRQQSPVNPDPVALDAHREFLHRPASGYVPEEIWKKAEEAVNEVKRQAMTELQKAVSEAERKAHDMITTERAKMERTVAEAKRQAAEDALAVINQQEDSSESCWNCGRKASETCSGCNTARYCGSFCQHKDWEKHHHICGQTLQAQQQGDTPAVSSSVTPNSGAGSPMDTPPAATPRSTTPGTPSTIETTPR [F92A;F147A] | disrupting interaction strength |

Second part, the variant after the results:

| effect of a mutation on the interaction | Variant |
| --- | --- |
| decreasing interaction strength | MPDSPVDVKTQSRLTPPTMPPPPTTQGAPRTSSFTPTTLTNGTSHSPTALNGAPSPPNGFSNGPSSSSSSSLANQQLPPACGARQLSKLKRFLTTAQQFGNDISPEIGERVRTLVLGLVNSTLTIEEFHSKLQEATNFPLRPFVIPFLKANLPLLQRELLHCARLAKQNPAQYLAQHEQLLLDASTTSPVDSSELLLDVNENGKRRTPDRTKENGFDREPLHSEHPSKRPCTISPGQRYSPNNGLSYQPNGLPHPTPPPPQHYRLDDMAIAHHYRDSYRHPSHRDLRDRNRPMGLHGTRQEEMIDHRLTDREWAEEWKHLDHLLNCIMDMVEKTRRSLTVLRRCQEADREELNYWIRRYSDAEDLKKGGGSSSSHSRQQSPVNPDPVALDAHREFLHRPASGYVPEEIWKKAEEAVNEVKRQAMTELQKAVSEAERKAHDMITTERAKMERTVAEAKRQAAEDALAVINQQEDSSESCWNCGRKASETCSGCNTARYCGSFCQHKDWEKHHHICGQTLQAQQQGDTPAVSSSVTPNSGAGSPMDTPPAATPRSTTPGTPSTIETTPR [L96A] |
| disrupting interaction strength | MPDSPVDVKTQSRLTPPTMPPPPTTQGAPRTSSFTPTTLTNGTSHSPTALNGAPSPPNGFSNGPSSSSSSSLANQQLPPACGARQLSKLKRFLTTLQQFGNDISPEIGERVRTLVLGLVNSTLTIEEFHSKLQEATNFPLAPFVIPFLKANLPLLQRELLHCARLAKQNPAQYLAQHEQLLLDASTTSPVDSSELLLDVNENGKRRTPDRTKENGFDREPLHSEHPSKRPCTISPGQRYSPNNGLSYQPNGLPHPTPPPPQHYRLDDMAIAHHYRDSYRHPSHRDLRDRNRPMGLHGTRQEEMIDHRLTDREWAEEWKHLDHLLNCIMDMVEKTRRSLTVLRRCQEADREELNYWIRRYSDAEDLKKGGGSSSSHSRQQSPVNPDPVALDAHREFLHRPASGYVPEEIWKKAEEAVNEVKRQAMTELQKAVSEAERKAHDMITTERAKMERTVAEAKRQAAEDALAVINQQEDSSESCWNCGRKASETCSGCNTARYCGSFCQHKDWEKHHHICGQTLQAQQQGDTPAVSSSVTPNSGAGSPMDTPPAATPRSTTPGTPSTIETTPR [R141A] |
| disrupting interaction strength | MPDSPVDVKTQSRLTPPTMPPPPTTQGAPRTSSFTPTTLTNGTSHSPTALNGAPSPPNGFSNGPSSSSSSSLANQQLPPACGARQLSKLKRFLTTLQQFGNDISPEIGERVRTLVLGLVNSTLTIEEFHSKLQEATNFPLDPFVIPFLKANLPLLQRELLHCARLAKQNPAQYLAQHEQLLLDASTTSPVDSSELLLDVNENGKRRTPDRTKENGFDREPLHSEHPSKRPCTISPGQRYSPNNGLSYQPNGLPHPTPPPPQHYRLDDMAIAHHYRDSYRHPSHRDLRDRNRPMGLHGTRQEEMIDHRLTDREWAEEWKHLDHLLNCIMDMVEKTRRSLTVLRRCQEADREELNYWIRRYSDAEDLKKGGGSSSSHSRQQSPVNPDPVALDAHREFLHRPASGYVPEEIWKKAEEAVNEVKRQAMTELQKAVSEAERKAHDMITTERAKMERTVAEAKRQAAEDALAVINQQEDSSESCWNCGRKASETCSGCNTARYCGSFCQHKDWEKHHHICGQTLQAQQQGDTPAVSSSVTPNSGAGSPMDTPPAATPRSTTPGTPSTIETTPR [R141D] |
| disrupting interaction strength | MPDSPVDVKTQSRLTPPTMPPPPTTQGAPRTSSFTPTTLTNGTSHSPTALNGAPSPPNGFSNGPSSSSSSSLANQQLPPACGARQLSKLKRFLTTLQQFGNDISPEIGERVRTLVLGLVNSTLTIEEFHSKLQEATNFPLRPFVIPALKANLPLLQRELLHCARLAKQNPAQYLAQHEQLLLDASTTSPVDSSELLLDVNENGKRRTPDRTKENGFDREPLHSEHPSKRPCTISPGQRYSPNNGLSYQPNGLPHPTPPPPQHYRLDDMAIAHHYRDSYRHPSHRDLRDRNRPMGLHGTRQEEMIDHRLTDREWAEEWKHLDHLLNCIMDMVEKTRRSLTVLRRCQEADREELNYWIRRYSDAEDLKKGGGSSSSHSRQQSPVNPDPVALDAHREFLHRPASGYVPEEIWKKAEEAVNEVKRQAMTELQKAVSEAERKAHDMITTERAKMERTVAEAKRQAAEDALAVINQQEDSSESCWNCGRKASETCSGCNTARYCGSFCQHKDWEKHHHICGQTLQAQQQGDTPAVSSSVTPNSGAGSPMDTPPAATPRSTTPGTPSTIETTPR [F147A] |
